# Results from the supplement of paper PMC7877785.
# ± gives the uncertainty stated by the source.
# Experiment: self-splicing fitness, log relative to wild type (ln ratio); higher = more splicing; Tetrahymena group I intron in knt gene, E. coli kanamycin selection, DiMSum; sequences stand for … in CUCUCU…GGAGGGAAAAGUUAUCAGGCAUGCACCUGGUAGCUAGUCUUUAAACCAAUAGAUUGCAUCGGUUUAAAAGGCAAGACCGUCAAAUUGCGGGAAAGGGGUCAACAGCCGUUCAGUACCAAGUCUCAGGGGAAACUUUGAGAUGGCCUUGCAAAGGGUAUGGUAAUAAGCUGACGGACAUGGUCCUAACCACGCAGCCAAGUCCUAAGUCAACAGAUCUUCUGUUGAUAUGGAUGCAGUUCACAGACUAAAUGUCGGUCGGGGAAGAUGUAUUCUUCUCAUAAGAUAUAGUCGGACCUCUCCUUAAUGGGAGCUAGCGGAUGAAGUGAUGCAACACUGGAGCCGCUGGGAACUAAUUUGUAUGCGAAAGUAUAUUGAUUAGUUUUGGAGUACUCGUGGUCG
# In short: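 Colonies from six replicate transformations of E. coli BL21(DE3) were pooled and amplicon-sequenced on an Illumina HiSeq 2500. The library placed an intron with all eight P1ex-region nucleotides randomised inside the knt kanamycin-resistance gene on pET-22b(+), and cells grew overnight at 37°C or 30°C on LB agar with or without 25 μg/mL kanamycin (plus 100 μg/mL carbenicillin, 50 μM IPTG, 0.2% rhamnose). Fitness is the DiMSum error-weighted combination of wild-type-normalised replicate fold changes, kanamycin versus none.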
Sequence,self-splicing fitness (ln) (30 °C),self-splicing fitness (ln) (37 °C)
GGAUAGCAAUAUUACGUUCU,-1.88 ± 0.15,-2.27 ± 0.24
GGAUAGCAAUAUUACGUUGG,-2.7 ± 0.16,-2.17 ± 0.22
GGCAAGCAAUAUUACGAAGG,-3.36 ± 0.17,-2.05 ± 0.19
GGCAAGCAAUAUUACGACAA,-0.0702 ± 0.12,-0.492 ± 0.13
GGCAAGCAAUAUUACGACAG,-3.74 ± 0.22,-2.63 ± 0.24
GGCAAGCAAUAUUACGACCA,-1.23 ± 0.12,-0.321 ± 0.13
GGCAAGCAAUAUUACGACUA,-0.26 ± 0.13,0.336 ± 0.14
GGCAAGCAAUAUUACGCACU,-0.587 ± 0.06,-0.483 ± 0.075
GGCAAGCAAUAUUACGCAGU,-1.88 ± 0.12,-1.43 ± 0.13
GGCAAGCAAUAUUACGCCAC,-3.87 ± 0.43,
GGCAAGCAAUAUUACGCCUA,-1.04 ± 0.14,-1.19 ± 0.13
GGCAAGCAAUAUUACGCCUG,,-0.621 ± 0.47
GGCAAGCAAUAUUACGCGCG,-0.499 ± 0.065,-0.495 ± 0.081
GGCAAGCAAUAUUACGCUCG,-1.66 ± 0.12,-1.4 ± 0.19
GGCAAGCAAUAUUACGGACG,-0.442 ± 0.089,-0.416 ± 0.086
GGCAAGCAAUAUUACGGAUU,-0.462 ± 0.11,-0.427 ± 0.13
GGCAAGCAAUAUUACGGCAA,0.2 ± 0.086,0.388 ± 0.12
GGCAAGCAAUAUUACGGCGC,-0.3 ± 0.082,-0.265 ± 0.12
GGCAAGCAAUAUUACGGCUA,-0.251 ± 0.11,1.23 ± 0.15
GGCAAGCAAUAUUACGGCUC,-2.55 ± 0.25,-0.854 ± 0.21
GGCAAGCAAUAUUACGGCUU,-0.985 ± 0.074,0.644 ± 0.12

Sequence,self-splicing fitness (ln) (30 °C),self-splicing fitness (ln) (37 °C)
GGCAAGCAAUAUUACGGGAG,-2.47 ± 0.15,-1.44 ± 0.18
GGCAAGCAAUAUUACGGUGC,-2.87 ± 0.16,-1.77 ± 0.17
GGCAAGCAAUAUUACGUAAA,-0.188 ± 0.089,-0.267 ± 0.1
GGCAAGCAAUAUUACGUACG,-0.191 ± 0.058,0.428 ± 0.075
GGCAAGCAAUAUUACGUCGU,-0.68 ± 0.097,0.0841 ± 0.11
GGCAAGCAAUAUUACGUCUC,-0.496 ± 0.087,0.539 ± 0.12
GGCAAGCAAUAUUACGUGAC,-1.6 ± 0.12,-0.479 ± 0.14
GGCAAGCAAUAUUACGUGAG,-1.21 ± 0.059,-0.0615 ± 0.08
GGCAAGCAAUAUUACGUGCG,-1.57 ± 0.1,-0.197 ± 0.099
GGCAAGCAAUAUUACGUGCU,-3.91 ± 0.16,-2.99 ± 0.2
GGCAAGCAAUAUUACGUGUA,-0.7 ± 0.049,-0.0721 ± 0.057
GGCAAGCAAUAUUACGUGUG,-0.694 ± 0.062,-0.126 ± 0.071
GGCCAGCAAUAUUACGAAAU,-2.92 ± 0.34,-1.04 ± 0.18
GGCCAGCAAUAUUACGAACC,0.576 ± 0.31,-0.0497 ± 0.4
GGCCAGCAAUAUUACGACAC,-0.242 ± 0.1,0.0601 ± 0.17
GGCCAGCAAUAUUACGAGCG,-0.269 ± 0.098,0.191 ± 0.13
GGCCAGCAAUAUUACGAUCA,-2.93 ± 0.25,-1.53 ± 0.16
GGCCAGCAAUAUUACGAUGA,-3.07 ± 0.28,-2.03 ± 0.22
GGCCAGCAAUAUUACGAUGC,-0.639 ± 0.093,0.00176 ± 0.11
GGCCAGCAAUAUUACGCCCA,-2.11 ± 0.35,-0.809 ± 0.25
GGCCAGCAAUAUUACGCCUG,-2.83 ± 0.27,-1.68 ± 0.23
